Target: T1, recombinant human C3d (human, UniProt P01024 996-1303, limits assumed)
T1 construct: domain: C3d; Also used for statements that speak only of C3d or human C3d; also called wild-type C3d
Assay: radiolabelled antibody; method and antigen not stated

T1 sequence (P01024 996-1303 limits assumed): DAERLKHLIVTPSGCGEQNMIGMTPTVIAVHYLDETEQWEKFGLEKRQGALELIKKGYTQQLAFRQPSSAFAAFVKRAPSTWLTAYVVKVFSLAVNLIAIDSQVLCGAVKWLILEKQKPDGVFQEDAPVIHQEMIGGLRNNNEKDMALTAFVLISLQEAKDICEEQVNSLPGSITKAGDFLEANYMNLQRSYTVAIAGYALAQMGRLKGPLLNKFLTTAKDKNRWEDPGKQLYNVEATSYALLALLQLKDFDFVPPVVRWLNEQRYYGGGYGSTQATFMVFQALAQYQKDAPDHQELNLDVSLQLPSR

Kd: 430 pM
B1: mouse monoclonal antibody 3d29 (antibody, mouse IgG2a, V domains shown)
VH: EVQLQQSGPVLVKPGASVKMSCKASGYTFTDYYMNWVKQSHGKSLEWIGVINPYNGGTSYNQKFKGKATLTVDKSSRTAYMELNSLTSEDSAVYYCSRGGPYWGQGTTLTVSS
VL: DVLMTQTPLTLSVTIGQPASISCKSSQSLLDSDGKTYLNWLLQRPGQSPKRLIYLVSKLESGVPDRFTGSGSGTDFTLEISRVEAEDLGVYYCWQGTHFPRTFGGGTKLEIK
notes: Group I clone; Also used FITC-labelled, biotinylated, radiolabelled and conjugated to SPIO nanoparticles; told under assay; also called clone 29; C3d29
